Data published in publication PMC8326117 (2021).

Biological target: SARS-CoV-2 S-protein RBD (SARS-CoV-2, UniProt P0DTC2)
Assay: SPR

KKKKKKDKFNHEAEDLFY [S-protein neutralizing peptide AYn1] was tested. Which koff did it give?
The koff was 0.001 s⁻¹.
